The target of this assay is T1, angiotensin-converting enzyme 2 (ACE2), labeled with a detection label (human, UniProt Q9BYF1 18-740).
T1 construct: also called labeled ACE2
Description: labeled ACE2 on immobilized Mixed Panel antigens, ECL.

T1 sequence (Q9BYF1 18-740 limits assumed): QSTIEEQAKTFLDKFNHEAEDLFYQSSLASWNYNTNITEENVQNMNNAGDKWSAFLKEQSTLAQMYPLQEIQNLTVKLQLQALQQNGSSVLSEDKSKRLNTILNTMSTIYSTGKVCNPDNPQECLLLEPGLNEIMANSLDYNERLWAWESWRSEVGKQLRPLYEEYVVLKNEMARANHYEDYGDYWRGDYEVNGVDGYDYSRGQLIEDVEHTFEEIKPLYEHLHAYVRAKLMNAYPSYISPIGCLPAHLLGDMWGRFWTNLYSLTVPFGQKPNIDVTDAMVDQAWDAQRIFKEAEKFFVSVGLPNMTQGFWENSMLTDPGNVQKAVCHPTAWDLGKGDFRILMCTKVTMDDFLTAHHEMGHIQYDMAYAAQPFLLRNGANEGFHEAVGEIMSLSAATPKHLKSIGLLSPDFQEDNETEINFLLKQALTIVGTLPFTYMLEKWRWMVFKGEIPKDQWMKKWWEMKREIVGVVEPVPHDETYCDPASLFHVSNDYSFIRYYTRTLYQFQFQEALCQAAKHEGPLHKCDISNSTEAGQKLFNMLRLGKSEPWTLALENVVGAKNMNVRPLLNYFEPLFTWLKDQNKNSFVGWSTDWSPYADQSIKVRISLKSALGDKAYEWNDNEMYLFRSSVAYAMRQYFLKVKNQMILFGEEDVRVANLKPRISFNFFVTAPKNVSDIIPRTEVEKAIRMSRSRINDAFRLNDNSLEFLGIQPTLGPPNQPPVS

B1: HCoV-OC43 S protein (other)
chain: AVIGDLKCTSDNINDKDTGPPPISTDTVDVTNGLGTYYVLDRVYLNTTLFLNGYYPTSGSTYRNMALKGSVLLSRLWFKPPFLSDFINGIFAKVKNTKVIKDRVMYSEFPAITIGSTFVNTSYSVVVQPRTINSTQDGDNKLQGLLEVSVCQYNMCEYPQTICHPNLGNHRKELWHLDTGVVSCLYKRNFTYDVNADYLYFHFYQEGGTFYAYFTDTGVVTKFLFNVYLGMALSHYYVMPLTCNSKLTLEYWVTPLTSRQYLLAFNQDGIIFNAEDCMSDFMSEIKCKTQSIAPPTGVYELNGYTVQPIADVYRRKPNLPNCNIEAWLNDKSVPSPLNWERKTFSNCNFNMSSLMSFIQADSFTCNNIDAAKIYGMCFSSITIDKFAIPNGRKVDLQLGNLGYLQSFNYRIDTTATSCQLYYNLPAANVSVSRFNPSTWNKRFGFIEDSVFKPRPAGVLTNHDVVYAQHCFKAPKNFCPCKLNGSCVGSGPGKNNGIGTCPAGTNYLTCDNLCTPDPITFTGTYKCPQTKSLVGIGEHCSGLAVKSDYCGGNSCTCRPQAFLGWSADSCLQGDKCNIFANFILHDVNSGLTCSTDLQKANTDIILGVCVNYDLYGILGQGIFVEVNATYYNSWQNLLYDSNGNLYGFRDYIINRTFMIRSCYSGRVSAAFHANSSEPALLFRNIKCNYVFNNSLTRQLQPINYFDSYLGCVVNAYNSTAISVQTCDLTVGSGYCVDYSKNRRSRGAITTGYRFTNFEPFTVNSVNDSLEPVGGLYEIQIPSEFTIGNMVEFIQTSSPKVTIDCAAFVCGDYAACKSQLVEYGSFCDNINAILTEVNELLDTTQLQVANSLMNGVTLSTKLKDGVNFNVDDINFSPVLGCLGSECSKASSRSAIEDLLFDKVKLSDVGFVEAYNNCTGGAEIRDLICVQSYKGIKVLPPLLSENQISGYTLAATSASLFPPWTAAAGVPFYLNVQYRINGLGVTMDVLSQNQKLIANAFNNALYAIQEGFDATNSALVKIQAVVNANAEALNNLLQQLSNRFGAISASLQEILSRLDALEAEAQIDRLINGRLTALNAYVSQQLSDSTLVKFSAAQAMEKVNECVKSQSSRINFCGNGNHIISLVQNAPYGLYFIHFSYVPTKYVTARVSPGLCIAGDRGIAPKSGYFVNVNNTWMYTGSGYYYPEPITENNVVVMSTCAVNYTKAPYVMLNTSIPNLPDFKEELDQWFKNQTSVAPDLSLDYINVTFLDLQVEMNRLQEAIKVLNQSYINLKDIGTYEYYVKWP
With B1, the binding result is given as “no binding”.
